Measurements as given in article PMC8277577 (Nature, 2021).

Key:
[1] = target: T1, SARS-CoV-2 receptor binding domain (RBD) (SARS-CoV-2, GenBank MN985325.1 …, UniProt P0DTC2); experiment: BLI; settings: both partners purified
[2] = target: T1, SARS-CoV-2 receptor binding domain (RBD); experiment: ELISA; settings: both partners purified

Row | Binder | Kd [1] | binding result [2]
1 | C841 (antibody, V domains shown, source: recombinant, purified) VH: EVQLVESGGGLVQPGGSLRLSCAASGFTFSIFSMNWVRQAPGKGLEWISYISSSSGSRHYADSVKGRFTISRDNAKNSLYLQMNNLRDEDTAMYYCAREAHDGALTGYGDYLNWFDPWGQGVLVTVSS VL: SYELTQPPSVSVAPGKTARIPCGGDSVGSKSVHWYQQKSGQAPVLVIHSDSDRPSGIPERFSGSNSGNTATLTITGVAAGDEADYYCHVWDTIGDRFYWVFGGGTKLTVL | 6.08 nM | 
2 | C1010 (antibody, V domains shown, source: recombinant, purified) VH: QVQLVESGGGVVQPGRSLRLSCAASGFTFSSYAMHWVRQAPGKGLEWVAVISYDGSNKYYADSVKGRFTISRDNSKNTLYLQMNSLRAEDTAVYYCAKKGQPYCGGDCYFYYFDYWGQGTLVTVSS VL: DIQMTQSPSSLSASLGDRVTITCQASQDISNYLNWYQQKPGKAPKLLIYDASNLETGVPSRFSGSGSGTDFTFTISSLQPEDIATYYCQQYDNLPPITFGQGTRLEIK | 16.3 nM | 
3 | C1011 (antibody, V domains shown, source: recombinant, purified) VH: QVQLVESGGGVVQPGRSLRLSCAVSGFTFSHYAMHWVRQAPGKGLEWVAVISYDGADKYYADSVRGRFTIARDNSKNTLFLQMSSLRPEDTAVYYCAKKGQPYCGGDCHFYYLDYWGQGTLVTVSS VL: DIQMTQSPSSLSASVGDRVTITCQASQDISNHLNWYQQKPGKAPKLLIYDASNLETGVPSRFSGSGSGTDFTFTISSLQAEDIATYYCQQYDNLPPITFGQGTRLEIK | 0.0121 nM | 
4 | C916 (antibody, V domains shown, source: recombinant, purified) VH: EVQLVESGGGLVQPGGSLRLSCAASGFTFSNYDMHWVRQATGRGLEWVSTIGTAGDTYYPGSVKGRFTISRENAKNSLYLQMNSLRAGDTALYYCARVRYDSSGYFWSLDYWGQGTLVTVSS VL: not shown | 2.92 nM | 
5 | C917 (antibody, V domains shown, source: recombinant, purified) VH: EVQLVESGGGLVQPGGSLRLSCAASGFTFSNYDMHWVRQATGKGLDWVSTIGTAGDTYYPGSVKGRFTISRENAKNSLYLQMNSLRAGDTAVYYCARVRFDTSGYFWSLDYWGQGTLVTVSS VL: not shown | 0.999 nM | 
6 | C936 (antibody, V domains shown, source: recombinant, purified) VH: EVQLVESGGGLIQPGGSLRLSCAASGFTVSSNYMSWVRQAPGKGLEWVSVIYSGGSTFYADSVKGRFTISRDNSKNTLYLQMNSLRAEDTAVYYCARDLGTGLFDYWGQGTLVTVSS VL: DIQLTQSPSFLSASVGDRVTITCRASQGISSYLAWYQQKPGKAPKLLIYAASTLQSGVPSRFSGSGSGTEFTLTISSLQPEDFATYYCQQLDSYPPGTFGPGTKVDIK | 157 nM | 
7 | C1015 (antibody, V domains shown, source: recombinant, purified) VH: QVQLQESGPRLVKPSGSLSLTCAVSGGSLSSSNWWNWVRQSPEKGLEWIGEIFHSGSTYYNPSLKSRVTISVDKSKNHFSLNLRSVTAADTAVYYCAGSYSNYIGGVWFDPWGQGTLVTVSS VL: not shown |  | no binding (tested: >1000 ng/ml)
